19 variants from the RNAGym collection of RNA variant scans (doi:10.1073/pnas.2313332121) can be followed below.

This sample holds only a part of the variants without activity.

B1: TPR 5TU (parent)
chain: GGAUCUUCUCGAUCUAACAAAAAAGACAAAUCUGCCACAAAGCUUGAGAGCAUCUUCGGAUGCAGAGGCGGCAGCCUUCGGUGGCGCGAUAGCGCCAACGUUCUCAACUAUGACACGCAAAACGCGUGCUCCGUUGAAUGGAGUUUAUCAUG

The variants in this data set derive from B1. The experiment in a line: polymerase ribozyme fitness, log enrichment relative to wild type (log ratio); higher = more active; in vitro selection for triplet polymerase activity. The gist of the method:
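Each subunit of a heterodimeric triplet polymerase ribozyme was mutagenized into a library by PCR, transcribed, and subjected to one round of in vitro selection, run in triplicate. Libraries were annealed with a biotinylated primer, the partner subunit and triplets, incubated frozen at −7 °C, and extended constructs were gel-excised, captured on streptavidin beads and recovered by RT-PCR. Input and output libraries were sequenced on Illumina, keeping genotypes with ≥10 input reads and ≥1 read per output. Fitness is log base 2 of genotype enrichment divided by wild-type enrichment, from inverse-variance-weighted replicate averages.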
Regarding GGAUCUUCUCGAUCUAACAAAAAUGACAAAUCUGCCACAAAGCUUGAGAGCAUAUUCGGAUGCAGAGGCGGCAGCCUUCGGUGGCGCGAUAGCGCCAACGUUCUCAACUAUGACACGCAAAACGCGUGCUCCGUUGAAUGGAGUUUAUCAUG [A24U C54A], the “polymerase ribozyme fitness (log ratio)” value is -0.922.

With GGAUUUUCUCGAUCUAACAAAAAAGACAAAUCUGCCACAAAGCUUGAGAGCAUCUUCGGAUGCAGAGGCGGCAGUCUUCGGUGGUGCGAUAGCGCCAACGUUCUCAACUAUGACACGCAAAACGCGUGCUCCGUUGAAUGGAGUUUAUCAUG [C5U C75U C85U], the “polymerase ribozyme fitness (log ratio)” value was 1.35.

For GGAUCUUCUCGAUCUAACAAAAAAGACAAAUCUGCCACAAAGCUUGAGAGCAUCUUUGGAUGCAGAGGCGGCUGCCUUCGGUGGCGCGAUAGCGCCAACGUUCUCAACUAUGACACGCAAAACGCGUGCUCCGUUGAAUGGAGUUUAUCAUG [C57U A73U], the “polymerase ribozyme fitness (log ratio)” value is -0.507.

In the case of GGAUCUUCUCGAUCUAACAAAAAAGACAAAUCUGCCACAAAGCUUGAGAGCAAGUUCGGAUGCAGACGCGGCAGCCUUCGGUGGCGCGAUAGCGCCAACGUUCUCAACUAUGACACGUAAAACGCGUGCACCGUUGAAUGGAGUUUAUCAUG [U53A C54G G67C C118U U130A], the “polymerase ribozyme fitness (log ratio)” value was at most -4.2.

Regarding GGAUCUUCUCGAUCUAACAAAAAAGACAAAUCUGCCACAAAGCUUGGGAGCAUCUUCGGAUGCAGAGGCGGCAGCCUUCGGUCGCGGGAUAGCGCCAACGUUCUCAACUAUUACACGCACAACGAGUGCUCCGUUUAAUGGAGUUUAUCAUG [A47G G83C C87G G112U A120C C125A G136U], the “polymerase ribozyme fitness (log ratio)” value is at most -4.2.

Regarding GGAUCUUCUCGAUCUAACAAAAAAGACAAAUCUGCCACAAAGCUUGAGAGCAUCUUCGGAUGUAGAGGCGGCAGCCUUCGGUCGGGCGAUAGCGCCAACGUUCUAAACUCUGACACGCAAAACGCGUGCUCCGUUGAAUGGAGUUUAUCAUG [C63U G83C C85G C105A A110C], the “polymerase ribozyme fitness (log ratio)” value is at most -4.2.

Consider GGAUCUUCUCGAUCUAACAAAAAGGUCAAAUCUGCCACUAAGCUUGAGAGCAACUUUGAAUGCAGAGUCGGCAGCCUUCGGUGGCACGAUAGCGCCAAAGUUCUCUACUAUGACACGCAAAACGCGUGCUCCGUUGAAUGGAGUUUAUCAUG [A24G A26U A39U U53A C57U G59A G68U G86A C99A A106U], for which the “polymerase ribozyme fitness (log ratio)” value was -4.18.

Take GGAUCUUCUCGAUCUAUCAAGAAAGACAAAUCUGCCACAGAGCUUGAGAGCAUCAUCGGGUGCAGAGGCGGCAGCCUUCGGUGGCGCGAUAGCGACAACGUUCUCAACUAUGACACGCAAAACGCGUGCUCCGUUGAAUGGAGUUCAUCAUG [A17U A21G A40G U55A A60G C95A U146C]: the “polymerase ribozyme fitness (log ratio)” value was -2.4.

Turning to GGAUCUUAUCGAUCUAACAAAAAAGACAAAUCUGCCACAUAGCUUGAGAGCAUCUUCGGAUGCAGAGGCGUCAGCCUUCGGUGGGGCGAUAGCGCCAACGUUCUCAACUAUGACACGCAAAACGCGUGCUCCGUUGAAUGGAGUUUAUCAUG [C8A A40U G71U C85G], the “polymerase ribozyme fitness (log ratio)” value is at most -4.2.

In the case of GGUUCUUCUCGAUCUGACAAAAAAGACAAAUCUGCAACAAAGCUUGAGAGCAUCUUCGGAUGCAGAGGCGGCAGCCUUCGGUGGCGCGAUACCGCCAACGUUCUCAACUAUGACACGCAAAACCCGUGCUACGUUUAAUGGAGUUUAUCAUG [A3U A16G C36A G92C G124C C131A G136U], the “polymerase ribozyme fitness (log ratio)” value was at most -4.2.

In the case of GGAUCUUCUCGAUCUAACAAAAAAGACAAAUCUGCCAAAAAGCUUGAGAGCAUCUUCGGAUGCCGAGGCGGCAGCCUUCGGUGGCGCCAUAGCGCCAACGUUCUCAACUAUGACACGCAAAACGCGUGCUCCGUUGAAUGGAGUUUAUCAUG [C38A A64C G88C], the “polymerase ribozyme fitness (log ratio)” value was at most -4.2.

For GGAUCUUCUCGAUCUAACAAAAAAGACAAAUCUGCCACAAUGCUUGAGAGCAUCUUCGGAUGCAGAGGCGGCAGCCUUCGGUGGCGCGAUAGCGCCAACGUUCUCAACUAUGACACGCAAAACGCGUGCUCCGUUGAAUGAAGUUUAUCGUG [A41U G141A A150G], the “polymerase ribozyme fitness (log ratio)” value is -4.16.

In the case of GGAUCUUCUCGAUCUAACAAAAACGACAAAUCUGCCACAAAGCUUGAGAGCAUCUUCGGAUGCAGAGGCGGCAGCCUUCGGUGGCGUGAUAGCGCCAACGUUCUCAACUAUGACACGCAAAACGCGUGCUCCGUUGAAUGGAGUUUAUCAUG [A24C C87U], the “polymerase ribozyme fitness (log ratio)” value was -3.57.

Regarding GGAUCUUCUAGAUCUAACAAAAAAGACAAAUCUGCCACCAAGCUUGAGAGCAUUUUCGGAUGCAGAGGCGGCAGCUUUCGGUGGCGAGAUAGCGCCAACGUUCUCAACUAUGACACGCAAAACGCGUGCUCCGUUGAAUGGAGUUUAUCAUG [C10A A39C C54U C76U C87A], the “polymerase ribozyme fitness (log ratio)” value was at most -4.2.

As to GGAUCUUCUCUAUCUAACAAAAAAGACAAAUCUGCCACAAAGCUUGAGAGCAUCUUCGGCUGCAGAGGCGGCAGCUUUCGGUGGCGCGAUAGCGCCAACGUUCUCAACUAUGACACGCAAAACGCGUGCUCCGUUGAAUGGAGUUUAUCAUG [G11U A60C C76U], the “polymerase ribozyme fitness (log ratio)” value was -3.53.

Take GGAUCUUCUCGAUCUAACAAAAAAGACAAAUCUGCCACAAAGGUUGAGAGCAUCUUCGGAUGCAGAGGCGGCAGCCUUCGGUGGUGCGAUAGCGCCAAUGUUCUCAACUAUGACACGCACAACGCGUUCUCCGUUGAAUGGAGUUUUUCAUG [C43G C85U C99U A120C G128U A147U]: the “polymerase ribozyme fitness (log ratio)” value is at most -4.2.

Consider GGAUCUUCUCGAUCUAACAAAAAAGACAAAUCUGCCUCGUAGCUUGAGAGCAUCUUCGGAUGCAGAGGCGGCAGCCUUCGGUGGCGCGAUAGUGCCAACGUUCUGAACUUUGACACGCAAAACGCGUGCUCCGUUGAUUGGAGUUUAUCAUG [A37U A39G A40U C93U C105G A110U A138U], for which the “polymerase ribozyme fitness (log ratio)” value was at most -4.2.

In the case of GGAUCUUCUCGAUCUAACAAAAAAGACAAAUCUGCCACAAAGCUAGAGAGCAUCUUCGGAUGCAGUGGCGGCAGCUUUCGGUGGGGCGAUAGCGCCAACGUUCUCAACUAUGACACGCAAAACGCGUGAUCCGUUGAAUGGAGUUUAUCAUG [U45A A66U C76U C85G C129A], the “polymerase ribozyme fitness (log ratio)” value was at most -4.2.

Consider GGAUCUUCUCGAUCUAACAAAAAAGACAAAUCUGCCACAAAGCUUGAGAGCAUCUUCGGAUGCAGAGGCGGCAGCCUUCGGUGGCGCGAUAGAGCCAACGUUGUCAUCUAUGACACGCGAAACGCGUGCUCCGUUGAAUAGAGUUUAUCAUG [C93A C103G A107U A119G G140A], for which the “polymerase ribozyme fitness (log ratio)” value is at most -4.2.
